# From US20050154189A1 (MAXYGEN, published 2005)
# Molecular target: T1, Soluble CTLA-4-Ig (human, UniProt P16410 36-161, FITC-conjugated in the two-colour FACS assays; unlabelled and detected with FITC goat anti-human IgG in the concentration-dependent assay)
# T1 construct: extracellular domain; Bought from R&D Systems; also called sCTLA-4-Ig; CTLA-4-Ig Fc; not shown: Fc portion of human IgG1
# Experiment: two-colour FACS profile on transfected cells; score of preference for CTLA-4-Ig over CD28-Ig vs WT hB7-1
# T1 sequence (P16410 36-161): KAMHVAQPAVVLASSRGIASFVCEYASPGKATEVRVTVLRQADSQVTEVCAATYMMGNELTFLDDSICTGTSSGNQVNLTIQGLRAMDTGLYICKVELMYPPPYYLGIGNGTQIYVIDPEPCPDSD
row,Binder,Binding Score
1,"Round 1 CTLA4BP-5 (ligand, also called R1-5; R1 CTLA-4BP-5) VIHVTKEVKEVATLSCGHNVSVEELAQTRIHWQKEKKMVLTMMSGDMNIWPEYKNRTIFDITNNLSIVILALRPSDEGTYECVVLKYEKDAFKREHLAEVTLSVKADFPTPSISDFEIPPSNIRRIICSTSGGFPEPHLSWLENGEELNAINTTVSQDPGTELYTVSSKLDFNMTTNHSFMCLIKYGHLRVNQTFNWNTPKQEHFPDNLLPSWAITLISVNGIFVICCLTYCFAPRCRERRRNERLRRESVRPV",2
2,Round 2 CTLA4BP 2x1-b12 (ligand) VIHMTKEVKEVATLSCGHNVSVEELAQTRIYWQKEKKMVLTMMSGDMNIWPEYKNRTIFDITNNLSIVILALRPSDEGTYECVALKYEKDAFKQEHLAEVTLSVKADFPTPSISDFEIPPSNIRRIICSTSGGFPEPRLAWMEDGEELNAINTTVSQDPETELYTVSSKLDFNMTANHSFMCLIKYGHLRVNQTFNWNTPKQEHFPDNLLPSWAITLISVNGIFVICCLTYCFAPRCRERRRNERLRRESVCPV,1
3,Round 2 CTLA4BP 2x2-f1 (ligand) VIHVTKEVKEVATLSCGHNVSVEELAQTRIHWQKEKKMVLTMMSGDMNIWPEYKNRTIFDITNNLSIVILALRLSDEGTYECVVLKYEKDAFKREHLAEVTLSVKADFPTPSISDFEIPTSNIRRIICSTSGGFPEPHLFWLENGEELNAINTTASQDPETELYTVSSKLDFNMTTNRSFVCLIKYGHLRVNQTFNWNTPKQEHFPDNLLPSWAITLISVNGIFVICCLTYCFAPRCRERRRNERLRRESVRPV,1
4,Round 2 CTLA4BP 2x1-c4 (ligand) VIHVTKEVKEVATLPCGHNVSVEELAQTRIHWQKEKKMVLTMMSGDMNIWPEYKNRTIFDITNNLSIVILALRPSDEGTYECVVLKYEKDAFKREHLAEVMLSVKADFPTPSITDFEIPPSNIRRIICSTSGGFPEPHLFWLENGEELNAINTTVSQDPGTELYAVSSKLDFNMTTNHNFMCLIKYGHLRVNQTFNWNTPKQEHFPDNLLPSWAITLISVNGIFVICCLTYCFAPRCRERRRNERLRRESVRPV,1
5,"Round 1 CTLA4BP-11 (ligand, also called R1-11; R1 CTLA-4BP-11) VIHMTKEVKEVATLSCGHNVSVEELAQTRIYWQKEKKMVLTMMSGDMNIWPEYKNRTIFDITNNLSIVILALRPSDEGTYECVVLKYEKDAFKREHLAEVMLSVKADFPTPSITDFEIPPSNIRRIICSTSGGFPEPHLFWLENGEELNAINTTVSQDPETELYAVSSKLDFNMTTNHSFMCLIKYGHLRVNQTFNWNTTKQEHFPDNLLPSWAITLISVNGIFVICCLTHCFAPRCRERRRNERLRRESVHPV",1
6,Round 2 CTLA4BP 2x1-f10 (ligand) VIHVTKEVKEVATLSCGHNVSVEELAQTRIHWQKEKKMVLTMMSGDMNIWPEYKNRTIFDITNNLSIVILALRPSDEGTYECVVLKYEKDAFKREHLAEVMLSVKADFPTPSITDFEIPPSNIRRIICSTSGGFPEPRLAWMEDGEELNAINTTVSQDPGTELYAVSSKLDFNMTTNHSFMCLIKYGHLRVNQTFNWNTPKQEHFPDNLLPSWAITLISVNGISVICCLTYCFAPRCRERRRNERLRRESVCPV,1
7,"Round 1 CTLA4BP-13 (ligand, also called R1-13; R1 CTLA-4BP-13) VIHVTKEVKEVATLSCGHNVSVEELAQTRIYWQKEKKMVLTMMSGDMNIWPEYKNRTIFDITNNLSIVILALRPSDEGTYECVVLKYEKDAFKREHLAEVTLSVKADFPTPSISDFEIPTSNIRRIICSTSGGFPEPHLFGLENGEEINAINTTASQDPETELYTVSSKLDFNMTPNRSFVCLIKYGHLRVNQTFNWNTPKQEHFPDNLLPSWAITLISANGIFVICCLTYCFAPRCRERKSNERLRRESVRPV",1
8,Round 2 CTLA4BP 2x1-g8 (ligand) VIHVTKEVKEVATLSCGHNVSVEELAQTRIHWQKEKKMVLTMMSGDMNIWPEYKNRTIFDITNNLSVVILALRPSDEGTYECVVLKYEKDAFKREHLAEVTLSVKADFPTPSITDFEIPPSNIRRIICSTSGGFPEPHLSWLENGEELNAINTTVSQDPGTELYTVSSKLDFNMTTNRSFVCLIKYGHLRVNQTFNWNTPKQEHFPDNLLPSWAITLISVNGIFVICCLTYCFAPRCRERKSNERLRRESVRPV,1
9,"Round 1 CTLA4BP-27 (ligand, also called R1-27; R1 CTLA-4BP-27) VIHVTKEVKEVATLSCGLNVSVEELAQTRIYWQKEKKMVLTMMSGDMNIWPEYKNRTIFDITNNLSIVILALRPSDEGTYECVVLKYEKDAFKREHLAEVMLSVKADFPTPSISDFEIPPSNIRRIICSTSGGFPEPHLSWLENGEELNAINTTVSQDPETELYTVSSKLDFNMTANHSFVCLIKYGHLRVNQTFNWNTPKQEHFPDNLLPSWAITLISVNGIFVICCLTYCFAPRCRERRRNETLRRESVRPV",1
10,Round 2 CTLA4BP 2x1-h12 (ligand) VIHVTKEVKEVATLSCGLNVSVEELAQTRIHWQKEKKMVLTMMSGDMNIWPEYKNRTIFDITNNLSIVILALRPSDEGTYECVVLKYEKDAFKREHLAEVMLSVKADFPTPSITDFEIPPSNIRRIICSTSGGFPEPHLSWLENGEELNAINTTVSQDPGTELYTVSSKLDFNMTTNHSFMCLIKYGHLRVNQTFNWNTPKQEHFPDNLLPSWAITLISANGIFVICCLTYCFAPRCRERKSNERLRRESVCPV,1
11,Round 2 CTLA4BP 2x2-f12 (ligand) VIHVTKEVKEVATLSCGHNVSVEELAQTRIHWQKEKKMVLTMMSGDMNIWPEYKNRTIFDITNNLSIVILALRPSDEGTYGCVVLEYEKDAFKREHLAEVMLSVKADFPTPSISDFEIPPSNIRRIICSTSGGFPEPHLSWLENGEELNAINTTVSQDPETELYAVSSKLDFNMTTNHSFMCLIKYGHLRANQTFNWNTPKQEHFPDNLLPSWAITLISVNGIFVICCLTYCFAPRCRERRRNERLRRESVRPV,1
12,Round 2 CTLA4 A-B11-5 (ligand) ITPKSATKRVKETVMLSCDYSTSTEELTSLRIYWQKDSKMVLAILPGKVQVWPEYKNRTITDMNDNPRIVILALRLSDSGTYTCVIQKPDLKGAYKLEHLTSVRLMIRADFPVPTINDLGNPSPNIRRLICSTSGGFPRPHLYWLENGEELNATNTTLSQDPETKLYMISSELDFNMTSNHSFLCLVKYGDLTVSQTFYWQESKPTPSANQHLTWTIIIPVSAFGISVIIAVILTCLTCRNAAIRRQRRENEVEMQSCSQSP,1
13,Round 2 CTLA4 A-G8-1 (ligand) ITPKSVTKRVKETVMLSCDYNTSTEELTSLRIYWQKDSKMVLAILPGKVQVWPEYKNRTITDMNDNPRIVILALPLSDSGTYTCVIQKPDLKGAYKLEHLTSVRLMIRADFPVPTINDLGNPSPNIRRLICSTSGGFPRPHLYWLENGEELNATNTTLSQDPETKLYMISSELDFNMTSNHSFLCLVKYGDLTVSQTFYWQESKPTPSANQHLTWTIIIPVSAFGISVIIAVILTCLTCRNAAIRRQRRENEVEMQSCSQSP,1
14,Round 2 CTLA4 A-F6-9 (ligand) ITPKSVTKRVKETVMLSCDYSTSTEELTSLRIYWQKDSKMVLAILPGKVQVWPEYKNRTITDMNDNPRIVILALRLSDSGTYTCVIQKPDLKGAYKLEHLTSVRLMIRADFPVPTINDLGNPSPNIRRLICSTSGGFPRPHLYWLENGEELNATNTTLSQDPETKLYMISSELDFNMTSNHSFLCLVKYGDLTVSQTFYWQESKPTPSANQHLTWTIIIPVSAFGISVIIAVILTCLTCRNAAIRRQRRENEVEMQSCSQSP,1
